Laboratory results: IntAct's records for PubMed 31515488

B1: Keratin, type II cytoskeletal 79 (Homo sapiens), Q5XKE5 (parent)
chain: MRSSVSRQTYSTKGGFSSNSASGGSGSQARTSFSSVTVSRSSGSGGGAHCGPGTGGFGSRSLYNLGGHKSISVSVAGGALLGRALGGFGFGSRAFMGQGAGRQTFGPACPPGGIQEVTVNQSLLTPLHVEIDPEIQRVRTQEREQIKTLNNKFASFIDKVRFLEQQNKVLETKWALLQEQGQNLGVTRNNLEPLFEAYLGSMRSTLDRLQSERGRLDSELRNVQDLVEDFKNKYEDEINKHTAAENEFVVLKKDVDAAYMGRMDLHGKVGTLTQEIDFLQQLYEMELSQVQTHVSNTNVVLSMDNNRNLDLDSIIAEVKAQYELIAQRSRAEAEAWYQTKYEELQVTAGKHGDNLRDTKNEIAELTRTIQRLQGEADAAKKQCQQLQTAIAEAEQRGELALKDAQKKLGDLDVALHQAKEDLTRLLRDYQELMNVKLALDVEIATYRKLLESEESRMSGECPSAVSISVTGNSTTVCGGGAASFGGGISLGGSGGATKGGFSTNVGYSTVKGGPVSAGTSILRKTTTVKTSSQRY
partner: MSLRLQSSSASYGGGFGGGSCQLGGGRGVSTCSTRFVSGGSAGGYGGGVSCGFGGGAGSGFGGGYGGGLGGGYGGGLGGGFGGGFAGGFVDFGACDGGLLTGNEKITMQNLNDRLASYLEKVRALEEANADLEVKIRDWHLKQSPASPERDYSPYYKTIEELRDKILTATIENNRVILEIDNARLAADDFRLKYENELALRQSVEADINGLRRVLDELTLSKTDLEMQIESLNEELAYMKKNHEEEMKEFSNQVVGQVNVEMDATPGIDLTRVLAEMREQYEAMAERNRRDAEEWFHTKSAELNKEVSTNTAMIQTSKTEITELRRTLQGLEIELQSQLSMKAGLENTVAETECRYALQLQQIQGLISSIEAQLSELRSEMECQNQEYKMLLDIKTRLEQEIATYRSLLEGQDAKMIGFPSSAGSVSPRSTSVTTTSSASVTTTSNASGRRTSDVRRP
B2: Isoform 1 of Nuclear RNA export factor 3 (Homo sapiens), Q9H4D5-1 (parent)
chain: MSLPSGHTTGHTDQVVQRRARCWDIYQRRFSSRSEPVNPGMHSSSHQQQDGDAAMHGAHMDSPVRYTPYTISPYNRKGSFRKQDQTHVNMEREQKPPERRMEGNMPDGTLGSWFKITVPFGIKYNEKWLLNLIQNECSVPFVPVEFHYENMHASFFVENASIAYALKNVSGKIWDEDNEKISIFVNPAGIPHFVHRELKSEKVEQIKLAMNQQCDVSQEALDIQRLPFYPDMVNRDTKMASNPRKCMAASLDVHEENIPTVMSAGEMDKWKGIEPGEKCADRSPVCTTFSDTSSNINSILELFPKLLCLDGQQSPRATLCGTEAHKRLPTCKGSFFGSEMLKNLVLQFLQQYYLIYDSGDRQGLLSAYHDEACFSLSIPFNPEDSAPSSFCKFFKDSRNIKILKDPYLRGELLKHTKLDIVDSLSALPKTQHDLSSFLVDMWYQTEWMLCFSVNGVFKEVEGQSQGSVLAFTRTFIATPGSSSSLCIVNDKLFVRDTSHQGTQSALFTLVPTAFSSSVPAFSQEQQKMLPS
partner: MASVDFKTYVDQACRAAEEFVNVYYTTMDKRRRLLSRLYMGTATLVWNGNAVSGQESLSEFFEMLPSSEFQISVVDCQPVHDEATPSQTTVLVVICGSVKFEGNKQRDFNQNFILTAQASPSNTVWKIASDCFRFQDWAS
B3: E3 ubiquitin-protein ligase SH3RF2 (Homo sapiens), Q8TEC5 (parent)
chain: MDDLTLLDLLECPVCFEKLDVTAKVLPCQHTFCKPCLQRVFKAHKELRCPECRTPVFSNIEALPANLLLVRLLDGVRSGQSSGRGGSFRRPGTMTLQDGRKSRTNPRRLQASPFRLVPNVRIHMDGVPRAKALCNYRGQNPGDLRFNKGDIILLRRQLDENWYQGEINGISGNFPASSVEVIKQLPQPPPLCRALYNFDLRGKDKSENQDCLTFLKDDIITVISRVDENWAEGKLGDKVGIFPILFVEPNLTARHLLEKNKGRQSSRTKNLSLVSSSSRGNTSTLRRGPGSRRKVPGQFSITTALNTLNRMVHSPSGRHMVEISTPVLISSSNPSVITQPMEKADVPSSCVGQVSTYHPAPVSPGHSTAVVSLPGSQQHLSANMFVALHSYSAHGPDELDLQKGEGVRVLGKCQDGWLRGVSLVTGRVGIFPNNYVIPIFRKTSSFPDSRSPGLYTTWTLSTSSVSSQGSISEGDPRQSRPFKSVFVPTAIVNPVRSTAGPGTLGQGSLRKGRSSMRKNGSLQRPLQSGIPTLVVGSLRRSPTMVLRPQQFQFYQPQGIPSSPSAVVVEMGSKPALTGEPALTCISRGSEAWIHSAASSLIMEDKEIPIKSEPLPKPPASAPPSILVKPENSRNGIEKQVKTVRFQNYSPPPTKHYTSHPTSGKPEQPATLKASQPEAASLGPEMTVLFAHRSGCHSGQQTDLRRKSALGKATTLVSTASGTQTVFPSK
B4: Protein boule-like (Homo sapiens), Q8N9W6 (parent)
chain: MQTDSLSPSPNPVSPVPLNNPTSAPRYGTVIPNRIFVGGIDFKTNESDLRKFFSQYGSVKEVKIVNDRAGVSKGYGFVTFETQEDAQKILQEAEKLNYKDKKLNIGPAIRKQQVGIPRSSIMPAAGTMYLTTSTGYPYTYHNGVAYFHTPEVTSVPPPWPSRSVCSSPVMVAQPIYQQPAYHYQATTQYLPGQWQWSVPQPSASSAPFLYLQPSEVIYQPVEIAQDGGCVPPPLSLMETSVPEPYSDHGVQATYHQVYAPSAITMPAPVMQPEPIKTVWSIHY
partner: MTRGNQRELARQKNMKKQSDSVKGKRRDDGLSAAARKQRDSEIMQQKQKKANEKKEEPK
B5: 2'-5'-oligoadenylate synthase 1 (Homo sapiens), P00973 (parent)
chain: MMDLRNTPAKSLDKFIEDYLLPDTCFRMQINHAIDIICGFLKERCFRGSSYPVCVSKVVKGGSSGKGTTLRGRSDADLVVFLSPLTTFQDQLNRRGEFIQEIRRQLEACQRERAFSVKFEVQAPRWGNPRALSFVLSSLQLGEGVEFDVLPAFDALGQLTGGYKPNPQIYVKLIEECTDLQKEGEFSTCFTELQRDFLKQRPTKLKSLIRLVKHWYQNCKKKLGKLPPQYALELLTVYAWERGSMKTHFNTAQGFRTVLELVINYQQLCIYWTKYYDFKNPIIEKYLRRQLTKPRPVILDPADPTGNLGGGDPKGWRQLAQEAEAWLNYPCFKNWDGSPVSSWILLAESNSADDETDDPRRYQKYGYIGTHEYPHFSHRPSTLQAASTPQAEEDWTCTIL
partner: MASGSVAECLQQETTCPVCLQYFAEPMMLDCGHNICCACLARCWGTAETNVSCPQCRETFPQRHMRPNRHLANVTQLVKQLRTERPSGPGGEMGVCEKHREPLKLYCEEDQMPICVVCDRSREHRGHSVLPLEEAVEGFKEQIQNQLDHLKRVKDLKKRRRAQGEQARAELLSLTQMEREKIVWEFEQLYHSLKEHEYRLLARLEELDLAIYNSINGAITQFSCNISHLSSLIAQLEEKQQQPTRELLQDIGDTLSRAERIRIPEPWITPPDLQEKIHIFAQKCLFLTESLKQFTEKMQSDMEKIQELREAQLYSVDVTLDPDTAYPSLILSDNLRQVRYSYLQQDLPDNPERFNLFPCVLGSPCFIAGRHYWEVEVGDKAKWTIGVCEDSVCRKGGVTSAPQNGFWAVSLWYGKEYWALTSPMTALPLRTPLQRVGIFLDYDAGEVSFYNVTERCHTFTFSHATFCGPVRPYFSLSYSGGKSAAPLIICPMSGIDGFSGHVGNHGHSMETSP
B6: Notch homolog 2 N-terminal-like protein A (Homo sapiens), Q7Z3S9 (parent)
chain: MCVTYHNGTGYCKCPEGFLGEYCQHRDPCEKNRCQNGGTCVAQAMLGKATCRCASGFTGEDCQYSTSHPCFVSRPCLNGGTCHMLSRDTYECTCQVGFTGKECQWTDACLSHPCANGSTCTTVANQFSCKCLTGFTGQKCETDVNECDIPGHCQHGGTCLNLPGSYQCQCLQGFTGQYCDSLYVPCAPSPCVNGGTCRQTGDFTFECNCLPETVRRGTELWERDREVWNGKEHDEN
partner: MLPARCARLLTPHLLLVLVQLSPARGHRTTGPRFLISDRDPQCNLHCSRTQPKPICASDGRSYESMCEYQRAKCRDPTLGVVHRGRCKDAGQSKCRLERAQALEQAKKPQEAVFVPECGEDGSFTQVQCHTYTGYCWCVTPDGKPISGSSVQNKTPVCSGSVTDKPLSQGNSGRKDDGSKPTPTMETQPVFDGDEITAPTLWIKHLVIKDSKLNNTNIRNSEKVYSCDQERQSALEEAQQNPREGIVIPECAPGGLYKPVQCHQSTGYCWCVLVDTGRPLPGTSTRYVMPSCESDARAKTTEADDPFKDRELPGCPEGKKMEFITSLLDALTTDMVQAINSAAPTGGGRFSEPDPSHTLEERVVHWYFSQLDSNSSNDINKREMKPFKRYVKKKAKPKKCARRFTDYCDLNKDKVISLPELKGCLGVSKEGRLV
B7: Forkhead box protein P3 (Homo sapiens), Q9BZS1 (parent)
chain: MPNPRPGKPSAPSLALGPSPGASPSWRAAPKASDLLGARGPGGTFQGRDLRGGAHASSSSLNPMPPSQLQLPTLPLVMVAPSGARLGPLPHLQALLQDRPHFMHQLSTVDAHARTPVLQVHPLESPAMISLTPPTTATGVFSLKARPGLPPGINVASLEWVSREPALLCTFPNPSAPRKDSTLSAVPQSSYPLLANGVCKWPGCEKVFEEPEDFLKHCQADHLLDEKGRAQCLLQREMVQSLEQQLVLEKEKLSAMQAHLAGKMALTKASSVASSDKGSCCIVAAGSQGPVVPAWSGPREAPDSLFAVRRHLWGSHGNSTFPEFLHNMDYFKFHNMRPPFTYATLIRWAILEAPEKQRTLNEIYHWFTRMFAFFRNHPATWKNAIRHNLSLHKCFVRVESEKGAVWTVDELEFRKKRSQRPSRCSNPTPGP
B8: Centrosomal protein of 55 kDa (Homo sapiens), Q53EZ4 (parent)
chain: MSSRSTKDLIKSKWGSKPSNSKSETTLEKLKGEIAHLKTSVDEITSGKGKLTDKERHRLLEKIRVLEAEKEKNAYQLTEKDKEIQRLRDQLKARYSTTTLLEQLEETTREGERREQVLKALSEEKDVLKQQLSAATSRIAELESKTNTLRLSQTVAPNCFNSSINNIHEMEIQLKDALEKNQQWLVYDQQREVYVKGLLAKIFELEKKTETAAHSLPQQTKKPESEGYLQEEKQKCYNDLLASAKKDLEVERQTITQLSFELSEFRRKYEETQKEVHNLNQLLYSQRRADVQHLEDDRHKTEKIQKLREENDIARGKLEEEKKRSEELLSQVQFLYTSLLKQQEEQTRVALLEQQMQACTLDFENEKLDRQHVQHQLHVILKELRKARNQITQLESLKQLHEFAITEPLVTFQGETENREKVAASPKSPTAALNESLVECPKCNIQYPATEHRDLLVHVEYCSK

Variants of: B1
Settings: with KRT13, P13646

Row | effect of a mutation on the interaction | Variant
1 | with no effect | H266R

Variants of: B2
Settings: with nxt1_human NXT1, Q9UKK6

Row | effect of a mutation on the interaction | Variant
2 | with no effect | T9K

Variants of: B2
Settings: with nxt1_human NXT1, Q9UKK6
Remark: another data set of the same source

Row | effect of a mutation on the interaction | Variant
3 | disrupting interaction strength | R409W

Variants of: B3
Settings: with rbpms_human RBPMS

Row | effect of a mutation on the interaction | Variant
4 | with no effect | V687I

Variants of: B3
Settings: with amol2_human AMOTL2, Q9Y2J4
amol2_human AMOTL2, Q9Y2J4, sequence (Q9Y2J4 whole entry): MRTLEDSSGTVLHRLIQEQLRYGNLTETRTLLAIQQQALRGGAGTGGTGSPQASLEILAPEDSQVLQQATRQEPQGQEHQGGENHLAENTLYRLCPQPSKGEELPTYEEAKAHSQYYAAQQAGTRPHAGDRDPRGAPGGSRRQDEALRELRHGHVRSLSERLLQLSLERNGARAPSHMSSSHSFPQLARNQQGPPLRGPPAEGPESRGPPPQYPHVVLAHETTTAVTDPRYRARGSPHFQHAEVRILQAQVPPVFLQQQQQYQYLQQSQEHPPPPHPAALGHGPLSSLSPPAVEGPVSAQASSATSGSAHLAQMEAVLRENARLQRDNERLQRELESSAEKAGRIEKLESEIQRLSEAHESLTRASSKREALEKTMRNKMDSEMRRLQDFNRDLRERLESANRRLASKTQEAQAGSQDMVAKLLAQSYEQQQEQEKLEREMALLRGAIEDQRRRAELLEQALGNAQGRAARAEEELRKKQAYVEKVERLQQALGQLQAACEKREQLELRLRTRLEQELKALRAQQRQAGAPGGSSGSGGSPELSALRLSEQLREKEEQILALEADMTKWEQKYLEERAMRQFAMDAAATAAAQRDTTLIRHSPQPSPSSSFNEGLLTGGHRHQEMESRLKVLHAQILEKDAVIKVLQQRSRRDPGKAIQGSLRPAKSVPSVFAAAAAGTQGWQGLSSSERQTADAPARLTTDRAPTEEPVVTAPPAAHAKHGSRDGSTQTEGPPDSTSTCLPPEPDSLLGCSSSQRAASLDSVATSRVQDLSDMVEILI

Row | effect of a mutation on the interaction | Variant
5 | with no effect | V687I

Variants of: B3
Settings: with mtus2_human MTUS2, Q5JR59
mtus2_human MTUS2, Q5JR59, sequence (Q5JR59 whole entry): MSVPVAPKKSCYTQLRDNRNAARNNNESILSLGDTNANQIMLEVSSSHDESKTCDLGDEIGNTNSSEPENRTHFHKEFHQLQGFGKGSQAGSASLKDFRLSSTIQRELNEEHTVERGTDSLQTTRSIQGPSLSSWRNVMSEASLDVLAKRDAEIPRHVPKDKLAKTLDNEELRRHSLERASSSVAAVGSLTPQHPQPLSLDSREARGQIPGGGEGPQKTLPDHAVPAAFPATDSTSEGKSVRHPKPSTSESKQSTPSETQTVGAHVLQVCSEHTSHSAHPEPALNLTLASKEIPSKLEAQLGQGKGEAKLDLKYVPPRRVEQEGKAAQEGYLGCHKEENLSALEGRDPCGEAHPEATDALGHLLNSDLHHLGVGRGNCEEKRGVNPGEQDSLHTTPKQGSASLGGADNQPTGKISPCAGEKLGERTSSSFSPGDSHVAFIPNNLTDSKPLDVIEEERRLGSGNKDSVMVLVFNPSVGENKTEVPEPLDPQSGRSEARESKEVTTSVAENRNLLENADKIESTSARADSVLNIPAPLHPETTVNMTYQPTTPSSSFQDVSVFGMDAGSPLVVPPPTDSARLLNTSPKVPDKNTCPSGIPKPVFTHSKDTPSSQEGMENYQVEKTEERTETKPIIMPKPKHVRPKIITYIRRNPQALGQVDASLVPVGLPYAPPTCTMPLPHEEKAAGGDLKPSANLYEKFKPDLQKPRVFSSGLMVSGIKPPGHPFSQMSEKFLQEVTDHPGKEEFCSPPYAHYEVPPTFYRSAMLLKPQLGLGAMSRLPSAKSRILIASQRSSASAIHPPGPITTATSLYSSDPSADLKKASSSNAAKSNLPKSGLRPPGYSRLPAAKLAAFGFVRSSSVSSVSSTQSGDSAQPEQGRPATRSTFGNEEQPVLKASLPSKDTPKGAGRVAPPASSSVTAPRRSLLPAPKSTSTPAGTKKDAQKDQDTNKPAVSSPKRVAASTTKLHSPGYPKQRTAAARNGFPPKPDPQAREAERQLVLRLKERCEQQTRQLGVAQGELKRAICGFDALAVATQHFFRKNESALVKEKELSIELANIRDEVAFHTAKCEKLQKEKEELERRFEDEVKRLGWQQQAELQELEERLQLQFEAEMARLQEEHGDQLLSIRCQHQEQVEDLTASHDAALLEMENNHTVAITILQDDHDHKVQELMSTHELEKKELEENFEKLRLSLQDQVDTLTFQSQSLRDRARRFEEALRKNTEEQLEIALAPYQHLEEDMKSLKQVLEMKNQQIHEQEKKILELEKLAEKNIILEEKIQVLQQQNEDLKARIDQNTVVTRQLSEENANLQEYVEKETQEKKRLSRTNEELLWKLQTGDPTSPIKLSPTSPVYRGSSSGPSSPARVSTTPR

Row | effect of a mutation on the interaction | Variant
6 | with no effect | V687I

Variants of: B4
Settings: with serf2_human SERF2, P84101

Row | effect of a mutation on the interaction | Variant
7 | with no effect | M270I
8 | with no effect | V78I
9 | disrupting interaction strength | S9Y

Variants of: B5
Settings: with tri27_human TRIM27, P14373

Row | effect of a mutation on the interaction | Variant
10 | disrupting interaction strength | L327P

Variants of: B6
Settings: with smoc1_human SMOC1, Q9H4F8

Row | effect of a mutation on the interaction | Variant
11 | with no effect | A115T
12 | with no effect | R74Q

Variants of: B7
Settings: with pr20e_human PRR20E

Row | effect of a mutation on the interaction | Variant
13 | with no effect | S59C

Variants of: B7
Settings: with rbpms_human RBPMS

Row | effect of a mutation on the interaction | Variant
14 | with no effect | S59C

Variants of: B8
Settings: with pdc6i_human PDCD6IP

Row | effect of a mutation on the interaction | Variant
15 | with no effect | E321K
16 | with no effect | L59F
17 | with no effect | A244P
18 | with no effect | R138Q
19 | with no effect | C236R

Variants of: B8
Settings: with dpolm_human POLM

Row | effect of a mutation on the interaction | Variant
20 | with no effect | A244P
21 | with no effect | C236R

Variants of: B8
Settings: with tead4_human TEAD4, Q15561
tead4_human TEAD4, Q15561, sequence (Q15561 whole entry): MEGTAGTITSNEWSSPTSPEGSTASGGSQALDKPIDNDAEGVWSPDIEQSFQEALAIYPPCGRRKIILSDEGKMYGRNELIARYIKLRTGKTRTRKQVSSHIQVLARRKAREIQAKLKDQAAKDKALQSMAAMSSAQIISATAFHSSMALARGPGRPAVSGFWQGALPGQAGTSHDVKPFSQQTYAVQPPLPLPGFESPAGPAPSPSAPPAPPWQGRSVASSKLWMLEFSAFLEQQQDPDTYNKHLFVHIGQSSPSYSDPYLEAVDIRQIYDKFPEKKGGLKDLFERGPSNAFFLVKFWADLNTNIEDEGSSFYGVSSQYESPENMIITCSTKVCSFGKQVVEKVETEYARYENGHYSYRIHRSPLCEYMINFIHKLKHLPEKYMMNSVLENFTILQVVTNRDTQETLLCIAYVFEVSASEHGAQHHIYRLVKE

Row | effect of a mutation on the interaction | Variant
22 | with no effect | A244P
23 | with no effect | C236R

Variants of: B8
Settings: with anx11_human ANXA11, P50995
anx11_human ANXA11, P50995, sequence (P50995 whole entry): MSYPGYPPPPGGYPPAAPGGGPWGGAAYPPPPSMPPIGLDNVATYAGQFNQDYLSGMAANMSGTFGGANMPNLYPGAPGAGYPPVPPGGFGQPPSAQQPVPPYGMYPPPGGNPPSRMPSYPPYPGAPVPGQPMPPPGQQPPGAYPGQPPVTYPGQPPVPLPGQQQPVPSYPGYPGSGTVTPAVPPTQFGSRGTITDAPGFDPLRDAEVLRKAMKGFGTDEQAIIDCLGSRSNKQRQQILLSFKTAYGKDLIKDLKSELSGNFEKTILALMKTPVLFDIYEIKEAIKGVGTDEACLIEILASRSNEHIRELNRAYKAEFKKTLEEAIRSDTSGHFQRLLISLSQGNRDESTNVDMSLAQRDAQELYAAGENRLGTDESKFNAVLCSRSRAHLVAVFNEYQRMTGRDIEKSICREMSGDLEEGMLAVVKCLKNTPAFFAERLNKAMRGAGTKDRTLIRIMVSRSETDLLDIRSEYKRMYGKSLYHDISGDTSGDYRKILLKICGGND

Row | effect of a mutation on the interaction | Variant
24 | disrupting interaction strength | A244P
25 | with no effect | C236R
